Values of other authors as cited in article PMC3726369.
Where two headings read alike, the source gives them in different places.

Columns and labels:
[1] = target: LH receptor (Homo sapiens) (UniProt P22888)
[2] = target: LH receptor (Rattus norvegicus) (UniProt P16235)
[3] = target: LH receptor (Homo sapiens) (UniProt P22888); remark: listed apart in the source

Chain of UniProt P22888 (P22888 27-699): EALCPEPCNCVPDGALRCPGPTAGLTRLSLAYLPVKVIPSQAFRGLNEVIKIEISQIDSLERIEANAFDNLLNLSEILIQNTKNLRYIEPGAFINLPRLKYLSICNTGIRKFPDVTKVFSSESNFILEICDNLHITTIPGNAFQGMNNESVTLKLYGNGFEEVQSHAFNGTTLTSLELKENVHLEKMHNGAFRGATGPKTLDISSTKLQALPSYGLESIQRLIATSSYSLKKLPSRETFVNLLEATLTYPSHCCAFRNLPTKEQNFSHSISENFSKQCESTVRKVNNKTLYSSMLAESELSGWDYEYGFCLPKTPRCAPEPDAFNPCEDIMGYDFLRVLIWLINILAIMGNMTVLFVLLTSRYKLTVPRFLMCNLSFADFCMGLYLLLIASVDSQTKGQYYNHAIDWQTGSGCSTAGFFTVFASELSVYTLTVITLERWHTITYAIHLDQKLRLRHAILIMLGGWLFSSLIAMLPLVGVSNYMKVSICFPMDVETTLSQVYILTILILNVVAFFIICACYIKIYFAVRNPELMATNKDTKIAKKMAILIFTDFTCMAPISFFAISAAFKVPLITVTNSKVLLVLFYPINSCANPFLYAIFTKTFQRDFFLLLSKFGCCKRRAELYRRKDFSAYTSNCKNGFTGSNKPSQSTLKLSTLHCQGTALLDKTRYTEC
Chain of UniProt P16235 (P16235 27-700): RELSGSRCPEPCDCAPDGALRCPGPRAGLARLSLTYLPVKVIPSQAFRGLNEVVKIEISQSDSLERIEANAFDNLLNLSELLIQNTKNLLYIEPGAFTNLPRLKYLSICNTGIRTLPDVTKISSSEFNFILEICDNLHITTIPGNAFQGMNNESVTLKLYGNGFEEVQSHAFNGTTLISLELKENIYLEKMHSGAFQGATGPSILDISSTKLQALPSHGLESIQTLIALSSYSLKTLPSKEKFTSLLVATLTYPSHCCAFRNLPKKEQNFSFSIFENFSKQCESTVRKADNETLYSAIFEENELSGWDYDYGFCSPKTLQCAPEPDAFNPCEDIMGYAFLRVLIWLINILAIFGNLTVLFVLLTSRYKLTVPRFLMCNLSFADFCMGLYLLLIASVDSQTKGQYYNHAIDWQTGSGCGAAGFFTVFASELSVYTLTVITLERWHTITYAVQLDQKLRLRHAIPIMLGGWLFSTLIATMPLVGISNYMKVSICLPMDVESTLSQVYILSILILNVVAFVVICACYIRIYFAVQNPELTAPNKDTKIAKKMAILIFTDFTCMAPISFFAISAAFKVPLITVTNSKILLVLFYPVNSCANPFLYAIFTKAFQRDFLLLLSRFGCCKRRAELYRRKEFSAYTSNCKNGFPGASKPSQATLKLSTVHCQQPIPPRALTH

For LH (from UniProt P01215), the Kd [1] is given as 9 nM and the Kd [2] is given as 0.09 nM.
For hCG (from UniProt P01215), the Kd [3] is listed as 4 nM.
